Reference: the supplement of paper PMC9170038

Test system: MS2 coat protein
Assay: apparent KD of MS2 coat protein; higher = weaker reporter binding
Conditions: Eterna round: R107
Method: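 RNA-MaP round R107: designed RNA switches with theophylline, tryptophan, arginine or FMN aptamers are transcribed on-chip within common flanks. They are titrated with SNAP-549-labelled MS2 coat protein in RNA-MaP buffer (100 mM Tris pH 7.5, 80 mM KCl, 4 mM MgCl2), without ligand or with the indicated ligand. Median apparent KD per design.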

[1] = input ligand: theophylline 20 uM
[2] = input ligand: theophylline 2 mM
[3] = input ligand: tryptophan 2.4 mM

Sequence: GGGUGGUAGGCGGCCGCCACUGAUUUUCAUUUAUAGAUGACAUGAGGAUCACCCAUGUUUAUGUGCAGGACCGGGCCUGUUGUGG [aaaS]
- apparent KD of MS2 coat protein (input ligand: arginine 13.2 mM): 43.1 nM
- apparent KD of MS2 coat protein (input ligand: none): 98.7 nM
- apparent KD of MS2 coat protein [1]: 74.2 nM
- apparent KD of MS2 coat protein [2]: 113 nM
- apparent KD of MS2 coat protein [3]: 77.6 nM

Sequence: AGAGCAUUGACGGCCGCCACUCAUGUCACAUGAGGAUCACCCAUGUGAUGGGUGAUAGCCCGGUUGAGGACCGGGUCAAUGCUCA [Omei Tryp SS B v1]
- apparent KD of MS2 coat protein (input ligand: arginine 13.2 mM): 18.4 nM
- apparent KD of MS2 coat protein [1]: 25.3 nM
- apparent KD of MS2 coat protein [2]: 20.4 nM

Sequence: AGCCAUGGAAACAUGGCGGCGGCUUGGGCGCGAGGACCGGUACGGCCGCCACUCGGGCAACAUGAGGAUCACCCAUGUUCCUCAU [ETA NP+V+V2 #18]
- apparent KD of MS2 coat protein (input ligand: arginine 13.2 mM): 84.6 nM
- apparent KD of MS2 coat protein (input ligand: none): 128 nM
- apparent KD of MS2 coat protein [1]: 245 nM
- apparent KD of MS2 coat protein [2]: 317 nM
- apparent KD of MS2 coat protein [3]: 161 nM

Sequence: ACAUGAGGAUCACCCAUGUGAAGGCACGAUACCAGCUGAUCCCGUGGCCCUUGGCAGCGUCACGUUUGGUCCCGCGGAUGAGACG [crcmullin]
- apparent KD of MS2 coat protein (input ligand: arginine 13.2 mM): 20.8 nM
- apparent KD of MS2 coat protein (input ligand: none): 14.2 nM
- apparent KD of MS2 coat protein [1]: 21.5 nM
- apparent KD of MS2 coat protein [2]: 17 nM
- apparent KD of MS2 coat protein [3]: 13.8 nM

Sequence: CCUAUGCAGUCGGCCGCCACUGAACAUGAGGAUCACCCAUGUAACGGAAACGAAGAUCCUGAAAUCAGGACCGGGACUGUAUAGG [Ex Tryptophan B 3]
- apparent KD of MS2 coat protein (input ligand: arginine 13.2 mM): 92.6 nM
- apparent KD of MS2 coat protein (input ligand: none): 154 nM
- apparent KD of MS2 coat protein [1]: 221 nM
- apparent KD of MS2 coat protein [2]: 185 nM
- apparent KD of MS2 coat protein [3]: 382 nM

Sequence: UCCUGCAGAGCGGCCGCCACUGUGUUGCGUGAGGAUGACCCAACAUGAGGAUCACCCAUGUUGUUUAGGACCGGGCUUGCCUCGA [xcmulliny]
- apparent KD of MS2 coat protein (input ligand: arginine 13.2 mM): 12 nM
- apparent KD of MS2 coat protein [1]: 17.2 nM
- apparent KD of MS2 coat protein [2]: 15.5 nM

Sequence: CGAUACAAAUAAAGCGUUCGUCCGCCAGAUACCAGAUUCAUUUCCAUCCCUUGGCAGCUGUCGACAUGAGGAUCACCCAUGUUUG [theeternabot_exclusion_MS2_Theo_A_41]
- apparent KD of MS2 coat protein (input ligand: arginine 13.2 mM): 17.2 nM
- apparent KD of MS2 coat protein [1]: 21.7 nM
- apparent KD of MS2 coat protein [3]: 19.9 nM

Sequence: GGUUGAUGGUCGGCCGCCACUGUUGGUGCCAUGAGUUAAGUAUAGCACAUGAGGAUCACCCAUGUCAGGACCGGGACUCUACCCG [theeternabot_exclusion_MS2_Trp_B_16]
- apparent KD of MS2 coat protein (input ligand: arginine 13.2 mM): 15.1 nM
- apparent KD of MS2 coat protein [1]: 19.6 nM
- apparent KD of MS2 coat protein [2]: 20.9 nM

Sequence: UUGUUGUUUGGAAGGAGCGUGUAAGAUUAAGAACAUGAGGAUCACCCAUGUUUUAAGGGAGCACAGGUAGGUCGCCGGGUGGUGG [11.S]
- apparent KD of MS2 coat protein (input ligand: arginine 13.2 mM): 14.4 nM
- apparent KD of MS2 coat protein (input ligand: none): 12.3 nM
- apparent KD of MS2 coat protein [1]: 31.5 nM
- apparent KD of MS2 coat protein [2]: 15.9 nM
- apparent KD of MS2 coat protein [3]: 21.5 nM

Sequence: GACAUGAGGAUCACCCAUGUACCGCGAGAAGGAGCGCGGAUAAACGCAGGUAGGUCGCUCGUGGGCUUACAUUCAAGUGUAAGCU [Usarat]
- apparent KD of MS2 coat protein (input ligand: arginine 13.2 mM): 49 nM
- apparent KD of MS2 coat protein (input ligand: none): 106 nM
- apparent KD of MS2 coat protein [1]: 143 nM
- apparent KD of MS2 coat protein [2]: 118 nM
- apparent KD of MS2 coat protein [3]: 31.3 nM

Sequence: UUUGCACAUGAGGAUCACCCAUGUACAGAUACCAGCCUCAUCUACGGCCCUUGGCAGCUGAGACAAUGGUGACGUGACGGGCUUU [Erqugere]
- apparent KD of MS2 coat protein (input ligand: arginine 13.2 mM): 13 nM
- apparent KD of MS2 coat protein [1]: 14.4 nM
- apparent KD of MS2 coat protein [3]: 13.2 nM

Sequence: AAAACACAUGAGGAUCACCCAUGUCAUGAUACCAGUCAACAUGAGGACCCUUGGCAGCAUAAAAUGGGUAACAUGAGGAUCACCC [AstrosEXyTheA#1]
- apparent KD of MS2 coat protein (input ligand: arginine 13.2 mM): 129 nM
- apparent KD of MS2 coat protein (input ligand: none): 29.4 nM
- apparent KD of MS2 coat protein [1]: 93.8 nM
- apparent KD of MS2 coat protein [2]: 102 nM
- apparent KD of MS2 coat protein [3]: 50.5 nM

Sequence: GGUCACCUAUCCUCAUUGGUGACCCUGGAAGGAGCGAGCGAGAGCUCAGGUAGGUCGCCAGAACAUGAGGAUCACCCAUGUAAUA [(A)''-(M)'-(A)'(Arg1)-(Arg2)-(M1)-(M2)_Design12]
- apparent KD of MS2 coat protein (input ligand: arginine 13.2 mM): 43.4 nM
- apparent KD of MS2 coat protein (input ligand: none): 94.9 nM
- apparent KD of MS2 coat protein [1]: 120 nM
- apparent KD of MS2 coat protein [2]: 111 nM
- apparent KD of MS2 coat protein [3]: 70.1 nM

Sequence: UAAUCCGGUCCUCGAUAAUCCUCAUGUAAACGAGGACCGGUACGGCCGCCACUCGAUAACAUGAGGAUCACCCAUGUAAUAAUAA [|T'-M'-Trp-Ms2|_Design14]
- apparent KD of MS2 coat protein (input ligand: arginine 13.2 mM): 47.5 nM
- apparent KD of MS2 coat protein [1]: 88.3 nM
- apparent KD of MS2 coat protein [2]: 82.2 nM

Sequence: GGGCGCUAUCCCGCGAGGGAUAGCGUUCGUCGAGGACCGGUACGGCCGCCACUCGAACGAGUGGUGACAUGAGGAUCACCCAUGU [Oaa]
- apparent KD of MS2 coat protein (input ligand: arginine 13.2 mM): 39 nM
- apparent KD of MS2 coat protein [1]: 55.2 nM
- apparent KD of MS2 coat protein [2]: 55.7 nM

Sequence: CGGACAUGAGGAUCACCCAUGUACACUGAAGGAGCGUCGAGAACGACAGGUAGGUCGCAGGCUAAGGAAGGUGAUGCUCAAGAAG [Exclusion Arginine A GF5]
- apparent KD of MS2 coat protein (input ligand: arginine 13.2 mM): 37.8 nM
- apparent KD of MS2 coat protein (input ligand: none): 36.5 nM
- apparent KD of MS2 coat protein [1]: 47.3 nM
- apparent KD of MS2 coat protein [2]: 41.1 nM
- apparent KD of MS2 coat protein [3]: 23.6 nM

Sequence: AUAACAUGAGGAUCACCCAUGUAAGGUGAUACCAGACGAAGUAAAGUCCCUUGGCAGCACAAGUAAAGUUACGAAUAUUGAUAGA [JR_SSTheophyA_Sub004]
- apparent KD of MS2 coat protein (input ligand: arginine 13.2 mM): 62.2 nM
- apparent KD of MS2 coat protein [1]: 416 nM
- apparent KD of MS2 coat protein [3]: 634 nM

Sequence: UCACAUGAGGAUCACCCAUGUAUAGUUGAAGGAGCGAUCAGGAGGUCAGGUAGGUCGCAGCACAUGAGGAUCACCCAUGUAUCGA [DOUBLE!!! :-D #4]
- apparent KD of MS2 coat protein (input ligand: arginine 13.2 mM): 34 nM
- apparent KD of MS2 coat protein (input ligand: none): 85.2 nM
- apparent KD of MS2 coat protein [1]: 72.7 nM
- apparent KD of MS2 coat protein [2]: 50.4 nM
- apparent KD of MS2 coat protein [3]: 59.5 nM
